The results in this text go back to publication doi:10.1101/2021.03.15.435138.

In this test the target is C-terminal hexahistidyl-tagged GluN3A subunit (UniProt Q9R1M7). The test is described as follows: pull-down.
Chain of C-terminal hexahistidyl-tagged GluN3A subunit (Q9R1M7 24-1135): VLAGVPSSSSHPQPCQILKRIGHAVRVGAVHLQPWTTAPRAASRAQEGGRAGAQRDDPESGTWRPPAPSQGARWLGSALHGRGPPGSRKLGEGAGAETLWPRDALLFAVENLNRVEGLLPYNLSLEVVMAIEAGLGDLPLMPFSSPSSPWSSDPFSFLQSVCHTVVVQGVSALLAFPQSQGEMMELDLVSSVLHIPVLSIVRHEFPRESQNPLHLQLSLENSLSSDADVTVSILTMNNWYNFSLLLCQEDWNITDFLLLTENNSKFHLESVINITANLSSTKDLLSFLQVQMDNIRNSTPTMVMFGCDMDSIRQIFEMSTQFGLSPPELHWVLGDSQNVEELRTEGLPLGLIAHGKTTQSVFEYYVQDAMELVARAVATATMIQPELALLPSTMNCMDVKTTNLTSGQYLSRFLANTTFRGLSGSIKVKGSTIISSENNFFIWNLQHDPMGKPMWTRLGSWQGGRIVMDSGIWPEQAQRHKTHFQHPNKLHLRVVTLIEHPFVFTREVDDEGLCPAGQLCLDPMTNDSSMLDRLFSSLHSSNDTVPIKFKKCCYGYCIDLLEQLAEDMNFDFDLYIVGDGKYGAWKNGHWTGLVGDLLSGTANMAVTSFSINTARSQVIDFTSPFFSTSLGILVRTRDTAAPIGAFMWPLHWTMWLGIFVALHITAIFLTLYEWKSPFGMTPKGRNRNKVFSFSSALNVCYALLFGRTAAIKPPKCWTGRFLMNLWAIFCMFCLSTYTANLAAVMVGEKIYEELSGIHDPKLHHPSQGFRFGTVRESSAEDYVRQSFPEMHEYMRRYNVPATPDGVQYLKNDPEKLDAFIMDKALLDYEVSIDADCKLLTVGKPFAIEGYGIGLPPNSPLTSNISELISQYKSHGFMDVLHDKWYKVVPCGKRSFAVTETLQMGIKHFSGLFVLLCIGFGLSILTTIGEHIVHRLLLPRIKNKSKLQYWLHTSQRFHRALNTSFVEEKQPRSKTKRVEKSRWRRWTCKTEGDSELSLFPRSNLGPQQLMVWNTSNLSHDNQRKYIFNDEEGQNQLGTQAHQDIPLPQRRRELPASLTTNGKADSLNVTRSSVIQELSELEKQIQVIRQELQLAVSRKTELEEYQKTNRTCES

One may read the stoichiometry N as a count of units in the complex or per binding partner. “GluN1-1a (splice variant 1a) NMDA receptor subunit, wild type (from UniProt P35439 19-938)” came in with a stoichiometry N of 1. In the case of “GluN1^1-802, M4-deleted GluN1 (from UniProt P35439 19-802) (domain or fragment)” it was 1.
